{
  "source": "patent US20240102052A1",
  "about": "(VNV NEWCO, published 2024)",
  "proteins": {"B1": {"name": "PNMA2 C136S mutant (other)", "chain": "MALALLEDWCRIMSVDEQKSLMVTGIPADFEEAEIQEVLQETLKSLGRYRLLGKIFRKQENANAVLLELLEDTDVSAIPSEVQGKGGVWKVIFKTPNQDTEFLERLNLFLEKEGQTVSGMFRALGQEGVSPATVPSISPELLAHLLGQAMAHAPQPLLPMRYRKLRVFSGSAVPAPEEESFEVWLEQATEIVKEWPVTEAEKKRWLAESLRGPALDLMHIVQADNPSISVEECLEAFKQVFGSLESRRTAQVRYLKTYQEEGEKVSAYVLRLETLLRRAVEKRAIPRRIADQVRLEQVMAGATLNQMLWCRLRELKDQGPPPSFLELMKVIREEEEEEASFENESIEEPEERDGYGRWNHEGDD"}, "B2": {"name": "PNMA2 C233S mutant (other)", "chain": "B1 chain with S136C, C233S"}, "B3": {"name": "PNMA2 C310S mutant (other)", "chain": "B1 chain with S136C, C310S"}, "B4": {"name": "PNMA2 C10S mutant (other)", "chain": "B1 chain with C10S, S136C"}, "B5": {"name": "wild type PNMA2 (other)", "chain": "B1 chain with S136C", "notes": "Self-associating capsid subunit"}},
  "note": "Where a chain is given by its changes, count along the chain named. In names and notes the source's numbering stands.",
  "data": [
    {"biological_target": "the molecule itself", "assay": "SDS-PAGE and western blot, self-association", "values": [
      {"protein": "B1", "binding result": "binds"},
      {"protein": "B2", "binding result": "binds"},
      {"protein": "B3", "binding result": "binds"},
      {"protein": "B4", "binding result": "binds"},
      {"protein": "B5", "binding result": "binds"}
    ]}
  ]
}
